According to patent publication US20250145723A1 (MINGHUI PHARMACEUTICAL HANGZHOU, published 2025):
Where a chain is given by its changes, count along the chain named.

B1: 5115-H1-M35-Fc (Fc fusion)
chain: EVQLVESGGGLVQPGGSLRLSCAASGRTFSSFVMSWFRQAPGKEREFVSAISGSGSRALYADSVKGRFTISRDNSKNTLYLQMNSLRAEDTAVYYCAANPRRATPDLRQYAYWGQGTLVTVSS
notes: VHH-Fc; Fc not specified; not shown: Fc
B2: 5115-H1-M36-Fc (Fc fusion)
chain: B1 chain with S30P, L59Y
notes: as for B1
B3: 5115-H1-M39-Fc (Fc fusion)
chain: B1 chain with A58F, L59R, R108Q
notes: as for B1
B4: 5115-H1-M40-Fc (Fc fusion)
chain: B1 chain with A58Q, L59R
notes: as for B1
B5: 5115-H4-M3-Fc (Fc fusion)
chain: B1 chain with S35A, E44G, R45L, L59R, L107Y, R108T
notes: as for B1
B6: 5115-H4-M25-Fc (Fc fusion)
chain: B1 chain with R27V, E44G, R45L, R108T
notes: as for B1
B7: 5115-H4-M28-Fc (Fc fusion)
chain: B1 chain with E44G, R45L, S54G, L59Y, T69A
notes: as for B1
B8: 5115-H4-M34-1-Fc (Fc fusion)
chain: B1 chain with S30N, S31R, S35A, E44G, R45L, S56Q, L59R, R108T
notes: as for B1
B9: 5115-H4-M34-3-Fc (Fc fusion)
chain: B1 chain with R27G, S35A, E44G, R45L, L59R, R108T, A111K
notes: as for B1
B10: 5115-H4-M34-4-Fc (Fc fusion)
chain: B1 chain with R27G, S35A, E44G, R45L, S54F, L59R, R108T
notes: as for B1
B11: 5115-H4-M34-5-Fc (Fc fusion)
chain: B1 chain with G26M, R27T, S35A, E44G, R45L, S54H, L59R, R108T
notes: as for B1
B12: 5115-H4-M34-7-Fc (Fc fusion)
chain: B1 chain with S35A, E44G, R45L, S56R, R57Q, L59R, R108S, Q109R
notes: as for B1
B13: 5115-H4-M34-8-Fc (Fc fusion)
chain: B1 chain with S31T, S35A, E44G, R45L, A58S, L59R, R108T
notes: as for B1
B14: 5115-H4-M34-9-Fc (Fc fusion)
chain: B1 chain with R27P, T28A, S35A, E44G, R45L, L59R, R108T
notes: as for B1
B15: 5115-H4-M34-11-Fc (Fc fusion)
chain: B1 chain with G26T, S35A, E44G, R45L, L59R, R108T
notes: as for B1
B16: 5115-H4-M34-12-Fc (Fc fusion)
chain: B1 chain with T28P, S35A, E44G, R45L, L59R, R102Y, R108T
notes: as for B1
B17: 5115-H4-M34-14-Fc (Fc fusion)
chain: B1 chain with G26R, R27G, S35A, E44G, R45L, S56K, R57V, L59R, R108T
notes: as for B1
B18: 5115-H4-M34-15-Fc (Fc fusion)
chain: B1 chain with F32L, S35A, E44G, R45L, L59R, R108T
notes: as for B1
B19: 5115-H4-M34-16-Fc (Fc fusion)
chain: B1 chain with S35G, E44G, R45L, S54F, L59R, R108T
notes: as for B1
B20: 5115-H4-M39-Fc (Fc fusion)
chain: B1 chain with E44G, R45L, A58S, L59R
notes: as for B1
B21: 5115-H4-M41-Fc (Fc fusion)
chain: B1 chain with S35G, E44G, R45L, L59R, L107Y, R108T, A111L
notes: as for B1
B22: 5115-H4-M48-Fc (Fc fusion)
chain: B1 chain with G16D, S31R, E44G, R45L, L59Y
notes: as for B1
B23: 5115-H4-M52-Fc (Fc fusion)
chain: B1 chain with G26S, E44G, R45L, L59N, R108T
notes: as for B1

The binders below were run against T1, recombinant human IGF-1R-his (human, UniProt P08069 31-932) (assay: ELISA, coated hIGF-1R-his).
T1 construct: Recombinant his-tagged protein; also called hIGF-1R-his; hIGF1R-his; not shown: his tag
Method: The binding activity of the nanobody-Fc fusion proteins obtained after two rounds of mutant construction with the antigen proteins (recombinant human IGF-1R-His) was detected by an ELISA method: 2 μg/mL recombinant human IGF1R-His antigen proteins were added to a 96-well ELISA plate, at 30 μL/well, for coating overnight at 4° C. The plate was washed three times with PBST. PBS containing 5% skim milk powder was added for blocking at room temperature for 2 h. The plate was washed three times with PBST. The nanobody-Fc fusion proteins were serially diluted 3-fold, and the nanobody-Fc fusion proteins of different concentrations were added to each well at 30 μL/well and incubated at room temperature for 1 h. The plate was washed three times with PBST, and horseradish peroxidase-labeled anti-human Fc antibodies were added at 30 μL/well and incubated at room temperature for 50 min. The plate was washed three times with PBST. TMB substrate solution was added at 30 μL/well for color development in the dark for 1-5 min, 30 μL of 2 M hydrochloric acid was added to terminate the reaction, and the OD₄₅₀ was read using a microplate reader. Curve fitting was conducted and the EC₅₀ value was calculated using Graphpad Prism software.

T1 sequence (P08069 31-932 limits assumed): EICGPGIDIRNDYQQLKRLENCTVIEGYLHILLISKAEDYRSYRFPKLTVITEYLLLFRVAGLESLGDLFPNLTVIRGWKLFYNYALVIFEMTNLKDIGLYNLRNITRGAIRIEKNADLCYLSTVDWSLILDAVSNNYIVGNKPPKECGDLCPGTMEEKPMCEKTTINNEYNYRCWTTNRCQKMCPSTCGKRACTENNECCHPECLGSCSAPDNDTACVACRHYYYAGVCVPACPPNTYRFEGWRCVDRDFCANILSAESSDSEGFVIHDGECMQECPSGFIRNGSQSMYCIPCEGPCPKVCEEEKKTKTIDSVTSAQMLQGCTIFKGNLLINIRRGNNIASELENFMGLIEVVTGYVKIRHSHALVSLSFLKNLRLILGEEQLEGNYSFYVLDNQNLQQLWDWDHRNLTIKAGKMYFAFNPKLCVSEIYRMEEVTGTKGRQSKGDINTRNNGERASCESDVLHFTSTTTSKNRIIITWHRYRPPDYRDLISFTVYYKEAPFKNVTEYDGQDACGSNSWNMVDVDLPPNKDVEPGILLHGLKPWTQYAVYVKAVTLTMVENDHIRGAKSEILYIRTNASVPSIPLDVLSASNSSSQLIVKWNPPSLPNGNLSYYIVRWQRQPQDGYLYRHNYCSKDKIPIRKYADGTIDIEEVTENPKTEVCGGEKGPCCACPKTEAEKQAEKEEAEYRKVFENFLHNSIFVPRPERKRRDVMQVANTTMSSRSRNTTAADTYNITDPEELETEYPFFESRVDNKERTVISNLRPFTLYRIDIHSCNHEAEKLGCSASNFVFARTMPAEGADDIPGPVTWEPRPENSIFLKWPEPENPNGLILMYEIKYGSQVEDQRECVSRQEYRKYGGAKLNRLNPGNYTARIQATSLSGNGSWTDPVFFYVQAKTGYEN

For B1, which EC50 is on record?
Its EC50 is 1.47 ng/mL.

For B2, which EC50 is on record?
Its EC50 is 1.43 ng/mL.

With B3 as the binder, how does the EC50 read?
The EC50 was 1.06 ng/mL.

For B4, which EC50 is on record?
Its EC50 is 1.23 ng/mL.

How did the EC50 turn out when B5 was run?
Its EC50 is 0.33 nM.

With B6 as the binder, how does the EC50 read?
The EC50 was 0.215 nM.

With B7 as the binder, how does the EC50 read?
The EC50 was 0.299 nM.

B8 was tested. Which EC50 did it give?
Its EC50 is 3.92 ng/mL.

How did the EC50 turn out when B9 was run?
Its EC50 is 3.64 ng/mL.

Which EC50 does the source give for B10 here?
Its EC50 is 6.24 ng/mL.

How did the EC50 turn out when B11 was run?
Its EC50 is 2.15 ng/mL.

Which EC50 does the source give for B12 here?
The EC50 was 5.36 ng/mL.

For B13, which EC50 is on record?
The EC50 was 3.79 ng/mL.

How did the EC50 turn out when B14 was run?
The EC50 was 4.05 ng/mL.

Which EC50 does the source give for B15 here?
The EC50 was 2.33 ng/mL.

For B16, which EC50 is on record?
Its EC50 is 3.33 ng/mL.

For B17, which EC50 is on record?
Its EC50 is 3.28 ng/mL.

How did the EC50 turn out when B18 was run?
The EC50 was 2.25 ng/mL.

Which EC50 does the source give for B19 here?
Its EC50 is 2.4 ng/mL.

Which EC50 does the source give for B20 here?
Its EC50 is 0.21 nM.

For B21, which EC50 is on record?
The EC50 was 0.175 nM.

For B22, which EC50 is on record?
The EC50 was 0.475 nM.

For B23, which EC50 is on record?
The EC50 was 0.183 nM.
